Test results as given in IntAct's records for PubMed 25910212.

B1: DNA mismatch repair protein Mlh1 (Homo sapiens), P40692 (parent)
chain: MSFVAGVIRRLDETVVNRIAAGEVIQRPANAIKEMIENCLDAKSTSIQVIVKEGGLKLIQIQDNGTGIRKEDLDIVCERFTTSKLQSFEDLASISTYGFRGEALASISHVAHVTITTKTADGKCAYRASYSDGKLKAPPKPCAGNQGTQITVEDLFYNIATRRKALKNPSEEYGKILEVVGRYSVHNAGISFSVKKQGETVADVRTLPNASTVDNIRSIFGNAVSRELIEIGCEDKTLAFKMNGYISNANYSVKKCIFLLFINHRLVESTSLRKAIETVYAAYLPKNTHPFLYLSLEISPQNVDVNVHPTKHEVHFLHEESILERVQQHIESKLLGSNSSRMYFTQTLLPGLAGPSGEMVKSTTSLTSSSTSGSSDKVYAHQMVRTDSREQKLDAFLQPLSKPLSSQPQAIVTEDKTDISSGRARQQDEEMLELPAPAEVAAKNQSLEGDTTKGTSEMSEKRGPTSSNPRKRHREDSDVEMVEDDSRKEMTAACTPRRRIINLTSVLSLQEEINEQGHEVLREMLHNHSFVGCVNPQWALAQHQTKLYLLNTTKLSEELFYQILIYDFANFGVLRLSEPAPLFDLAMLALDSPESGWTEEDGPKEGLAEYIVEFLKKKAEMLADYFSLEIDEEGNLIGLPLLIDNYVPPLEGLPIFILRLATEVNWDEEKECFESLSKECAMFYSIRKQYISEESTLSGQQSEVPGSIPNSWKWTVEHIVYKALRSHILPPKHFTEDGNILQLANLPDLYKVFERC
B2: B-cell antigen receptor complex-associated protein beta chain (Homo sapiens), P40259 (parent)
chain: MARLALSPVPSHWMVALLLLLSAEPVPAARSEDRYRNPKGSACSRIWQSPRFIARKRGFTVKMHCYMNSASGNVSWLWKQEMDENPQQLKLEKGRMEESQNESLATLTIQGIRFEDNGIYFCQQKCNNTSEVYQGCGTELRVMGFSTLAQLKQRNTLKDGIIMIQTLLIILFIIVPIFLLLDKDDSKAGMEEDHTYEGLDIDQTATYEDIVTLRTGEVKWSVGEHPGQE
B3: Inactive peptidyl-prolyl cis-trans isomerase FKBP6 (Homo sapiens), O75344 (parent)
chain: MGGSALNQGVLEGDDAPGQSLYERLSQRMLDISGDRGVLKDVIREGAGDLVAPDASVLVKYSGYLEHMDRPFDSNYFRKTPRLMKLGEDITLWGMELGLLSMRRGELARFLFKPNYAYGTLGCPPLIPPNTTVLFEIELLDFLDCAESDKFCALSAEQQDQFPLQKVLKVAATEREFGNYLFRQNRFYDAKVRYKRALLLLRRRSAPPEEQHLVEAAKLPVLLNLSFTYLKLDRPTIALCYGEQALIIDQKNAKALFRCGQACLLLTEYQKARDFLVRAQKEQPFNHDINNELKKLASCYRDYVDKEKEMWHRMFAPCGDGSTAGES
B4: E3 ubiquitin-protein ligase Midline-1 (Homo sapiens), O15344 (parent)
chain: METLESELTCPICLELFEDPLLLPCAHSLCFNCAHRILVSHCATNESVESITAFQCPTCRHVITLSQRGLDGLKRNVTLQNIIDRFQKASVSGPNSPSETRRERAFDANTMTSAEKVLCQFCDQDPAQDAVKTCVTCEVSYCDECLKATHPNKKPFTGHRLIEPIPDSHIRGLMCLEHEDEKVNMYCVTDDQLICALCKLVGRHRDHQVAALSERYDKLKQNLESNLTNLIKRNTELETLLAKLIQTCQHVEVNASRQEAKLTEECDLLIEIIQQRRQIIGTKIKEGKVMRLRKLAQQIANCKQCIERSASLISQAEHSLKENDHARFLQTAKNITERVSMATASSQVLIPEINLNDTFDTFALDFSREKKLLECLDYLTAPNPPTIREELCTASYDTITVHWTSDDEFSVVSYELQYTIFTGQANVVSLCNSADSWMIVPNIKQNHYTVHGLQSGTKYIFMVKAINQAGSRSSEPGKLKTNSQPFKLDPKSAHRKLKVSHDNLTVERDESSSKKSHTPERFTSQGSYGVAGNVFIDSGRHYWEVVISGSTWYAIGLAYKSAPKHEWIGKNSASWALCRCNNNWVVRHNSKEIPIEPAPHLRRVGILLDYDNGSIAFYDALNSIHLYTFDVAFAQPVCPTFTVWNKCLTIITGLPIPDHLDCTEQLP
partner: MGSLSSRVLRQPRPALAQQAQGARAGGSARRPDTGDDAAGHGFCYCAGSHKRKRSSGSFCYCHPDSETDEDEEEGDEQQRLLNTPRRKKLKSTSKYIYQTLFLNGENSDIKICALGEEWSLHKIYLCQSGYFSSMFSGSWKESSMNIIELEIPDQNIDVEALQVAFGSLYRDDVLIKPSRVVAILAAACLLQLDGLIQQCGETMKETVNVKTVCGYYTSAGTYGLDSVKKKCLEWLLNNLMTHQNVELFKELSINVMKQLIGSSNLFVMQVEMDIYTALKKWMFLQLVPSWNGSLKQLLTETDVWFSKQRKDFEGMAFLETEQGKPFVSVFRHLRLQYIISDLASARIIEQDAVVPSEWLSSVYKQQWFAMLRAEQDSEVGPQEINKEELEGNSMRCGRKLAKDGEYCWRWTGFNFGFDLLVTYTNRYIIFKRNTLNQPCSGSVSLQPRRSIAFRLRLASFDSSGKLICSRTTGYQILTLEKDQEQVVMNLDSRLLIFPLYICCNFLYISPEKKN
B5: Emerin (Homo sapiens), P50402 (parent)
chain: MDNYADLSDTELTTLLRRYNIPHGPVVGSTRRLYEKKIFEYETQRRRLSPPSSSAASSYSFSDLNSTRGDADMYDLPKKEDALLYQSKGYNDDYYEESYFTTRTYGEPESAGPSRAVRQSVTSFPDADAFHHQVHDDDLLSSSEEECKDRERPMYGRDSAYQSITHYRPVSASRSSLDLSYYPTSSSTSFMSSSSSSSSWLTRRAIRPENRAPGAGLGQDRQVPLWGQLLLFLVFVIVLFFIYHFMQAEEGNPF

Variants of: B1
Conditions: with AP2B1, P63010-2
For S44F, the “effect of a mutation on the interaction” value was “disrupting interaction strength”.

Variants of: B1
Conditions: with ccd33_human CCDC33, Q8N5R6
S44F was tested, and the “effect of a mutation on the interaction” value was “disrupting interaction strength”.

Variants of: B1
Conditions: with taso2_human TASOR2, Q5VWN6
In the case of S44F, the “effect of a mutation on the interaction” value is reported as “disrupting interaction strength”.

Variants of: B2
Conditions: with sgta_human SGTA
For G137S, the “effect of a mutation on the interaction” value was “disrupting interaction strength”.

Variants of: B3
Conditions: with lzts2_human LZTS2, Q9BRK4
For R202H, the “effect of a mutation on the interaction” value was “with no effect”.
In the case of F72L, the “effect of a mutation on the interaction” value is reported as “disrupting interaction strength”.

Variants of: B3
Conditions: with meox2_human MEOX2, P50222
With R202H the “effect of a mutation on the interaction” value was “with no effect”.
In the case of F72L, the “effect of a mutation on the interaction” value is reported as “disrupting interaction strength”.

Variants of: B4
Conditions: with gmcl1_human GMCL1, Q96IK5
In the case of K370E, the “effect of a mutation on the interaction” value is reported as “with no effect”.
C266R was tested, and the “effect of a mutation on the interaction” value was “with no effect”.
For P151L, the “effect of a mutation on the interaction” value was “with no effect”.
For L626P, the “effect of a mutation on the interaction” value was “with no effect”.

Variants of: B5
Conditions: with vapb_human VAPB
P183T was tested, and the “effect of a mutation on the interaction” value was “with no effect”.
P183H was tested, and the “effect of a mutation on the interaction” value was “with no effect”.

Variants of: B5
Conditions: with tri42_human TRIM42, Q8IWZ5
P183T was tested, and the “effect of a mutation on the interaction” value was “with no effect”.
In the case of P183H, the “effect of a mutation on the interaction” value is reported as “with no effect”.

Variants of: B5
Conditions: with stx4_human STX4, Q12846
With P183T the “effect of a mutation on the interaction” value was “with no effect”.
In the case of P183H, the “effect of a mutation on the interaction” value is reported as “with no effect”.

Variants of: B5
Conditions: with meox2_human MEOX2, P50222
P183T was tested, and the “effect of a mutation on the interaction” value was “with no effect”.
For P183H, the “effect of a mutation on the interaction” value was “with no effect”.

Variants of: B5
Conditions: with ccd33_human CCDC33, Q8N5R6
For P183T, the “effect of a mutation on the interaction” value was “with no effect”.
P183H was tested, and the “effect of a mutation on the interaction” value was “with no effect”.
